Results reported in PMC12063641.
Several values for one entry are separate records, joined by “and”; a condition that tells them apart may be missing. Identical values can stand only once.

Assays:
[1] = target: purified recombinant MA L20K/E73K/A82T mutant protein (HIV-1); experiment: SDS-PAGE of purified protein (SDS-resistant oligomer bands)
[2] = target: HIV-1 NL4-3 matrix protein p17 (MA) L20K, in mature virions or VLPs (HIV-1 (NL4-3)); experiment: SDS-resistant oligomer bands on SDS-PAGE and Western blot
[3] = target: HIV-1 NL4-3 matrix protein p17 (MA) L20K/E73K/A82T, in mature virions or VLPs (HIV-1 (NL4-3)); experiment: as above
[4] = target: HIV-1 NL4-3 Gag polyprotein precursor Pr55Gag with MA-L20K/E73K/A82T, uncleaved in immature VLPs (PR-D25N) (HIV-1 (NL4-3)); experiment: cryo-EM structure

Substance: purified recombinant MA L20K/E73K/A82T mutant protein (domain or fragment)
- stoichiometry N [1]: 2 and 3

Substance: HIV-1 NL4-3 matrix protein p17 (MA) L20K, in mature virions or VLPs (natural protein)
- stoichiometry N [2]: 2 and 3

Substance: HIV-1 NL4-3 matrix protein p17 (MA) L20K/E73K/A82T, in mature virions or VLPs (natural protein)
- stoichiometry N [3]: 2 and 3

Substance: HIV-1 NL4-3 Gag polyprotein precursor Pr55Gag with MA-L20K/E73K/A82T, uncleaved in immature VLPs (PR-D25N) (natural protein)
- stoichiometry N [4]: 3 and 6
